Numbering of substitutions follows the chain as printed.
Assays:
[1] = target: human Galectin-3 (Gal3), full-length recombinant (human) (UniProt P17931); assay: blocking ELISA, Gal3 coated, biotin-α-synuclein aggregates
[2] = target: human Galectin-3 (Gal3), full-length recombinant (human) (UniProt P17931); assay: blocking ELISA, Gal3 coated, biotin-APP695
[3] = target: human Galectin-3 (Gal3), full-length recombinant (human) (UniProt P17931); assay: blocking ELISA, Gal3 coated, biotin-Abeta42 peptide
[4] = target: human Galectin-3 (Gal3), full-length recombinant (human) (UniProt P17931); assay: blocking ELISA, Gal3 coated, biotin-Abeta42 oligomer
[5] = target: human Galectin-3 (Gal3), full-length recombinant (human) (UniProt P17931); assay: blocking ELISA, Gal3 coated, biotin-Tau aggregates
[6] = target: cynomolgus Gal3 (cynomolgus); assay: not stated (FIG. 50)
[7] = target: human Galectin-3 (Gal3), full-length recombinant (human) (UniProt P17931); assay: blocking ELISA, Gal3 coated, PDGFR beta-Fc, antibody 20 µg/ml
[8] = target: human Galectin-3 (Gal3), full-length recombinant (human) (UniProt P17931); assay: blocking ELISA, Gal3 coated, TREM2-His
[9] = target: human Galectin-3 (Gal3), full-length recombinant (human) (UniProt P17931); assay: blocking ELISA, Gal3 coated, VEGFR3-Fc, antibody 20 µg/ml
[10] = target: human Galectin-3 (Gal3), full-length recombinant (human) (UniProt P17931); assay: blocking ELISA, Gal3 coated, EGFR-Fc, antibody 20 µg/ml
[11] = target: human Galectin-3 (Gal3), full-length recombinant (human) (UniProt P17931); assay: blocking ELISA, Gal3 coated, biotin-TLR4
[12] = target: human Galectin-3 (Gal3), full-length recombinant (human) (UniProt P17931); assay: blocking ELISA, Gal3 coated, PDGFR alpha-Fc, antibody 20 µg/ml

human Galectin-3 (Gal3), full-length recombinant (human), sequence (P17931 2-250 limits assumed): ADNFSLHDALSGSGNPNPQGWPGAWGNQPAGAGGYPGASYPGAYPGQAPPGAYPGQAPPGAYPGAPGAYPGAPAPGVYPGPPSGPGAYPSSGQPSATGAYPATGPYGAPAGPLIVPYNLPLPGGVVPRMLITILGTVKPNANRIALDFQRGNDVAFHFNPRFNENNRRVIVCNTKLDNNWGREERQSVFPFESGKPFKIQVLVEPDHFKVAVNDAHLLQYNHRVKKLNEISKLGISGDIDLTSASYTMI

B1: 12G5.D7 (antibody, from a related filing, V domains shown)
VH: QVQLKQSGAELVRPGASVKLSCKASGYTFTDYYINWVKQRPGQGLEWIARIYPGTGNTDYNEKFKGRATLTAEKSSSTAYMQLSSLTSEDSAVYFCARFAYYYGSGGYFDYWGHGTTLTVSS
VL: DILMTQSPSSMSVSLGDTVSITCHASQGINSNMGWLQQKPGKSFKGLIYHATNLEDGVPSRFSGSGSGADYSLTISSLESEDFADYYCVQYAQFPPTFGSGTKLEIK
% blocking of Gal3-α-synuclein aggregates binding [1]: < 50%
% blocking of Gal3-APP695 binding [2]: > 86%
% blocking of Gal3-Abeta42 peptide binding [3]: < 46%
% blocking of Gal3-Abeta42 oligomer binding [4]: < 26%
% blocking of Gal3-Tau aggregates binding [5]: < 50%

B2: TB006 (antibody, V domains shown)
VH: QVQLVQSGAEVKKPGASVKVSCKASGYSFTNYYMHWVRQAPGQRLEWMGWIYPGSGNTNYNEKFQGRVTITADTSASTAYMELSSLRSEDTAVYYCSTAPGGFDVWGQGTTVTVSS
VL: DIVMTQTPLSLSVTPGQPASISCKSSKSLLHSDGITYLYWYLQKPGQSPQLLIYRMSNLASGVPDRFSGSGSGTDFTLKISRVEAEDVGVYYCAQMLEFPLTFGQGTKLEIKR
Kd [6]: 5.1 nM

B3: TB001 (antibody, IgG4, V domains shown)
VH: QVQLVQSGSELKKPGASVKVSCKASGYTFTNYGMNWVRQAPGQGLKWMGWINTNTGEPTYVEEFTGRFVFSLETSVSTAYLQISSLKAEDTAVYFCAPYDNFFAYWGQGTTVTVSS
VL: DIVLTQSPLSLPVTPGEPASISCRSSKSLLYKDGKTYLNWFLQKPGQSPQLLIYLMSTHASGVPDRFSGSGSGTDFTLKISRVEAEDVGVYYCQQLVDYPLTFGGGTKLEIKR
Kd [6]: 8.9 nM

B4: 7D8.2D8 (antibody, mouse IgG2a, V domains shown)
VH: EVQLVESGGGLVKPGGSLKLSCAASGFTFSSYAMSWVRQTPEKRLEWVATISDGGIYTYYPDNVKGRFTISRDNAKNNLFLQMSHLKSEDTAMYYCVRDGGYWGQGTTLTVSS
VL: DVLMTQTPLSLPVSLGDQASISCRSSQSIVHSNGNTYLEWYLQKPGQSPKLLIYKVSNRFSGVPDRFSGSGSGTDFTLKISRVEAEDLGVYYCFQGSHVPLTFGAGTKLELKR
% blocking of Gal3-PDGFR beta binding [7]: < 30%
% blocking of Gal3-APP695 binding [2]: > 90%
% blocking of Gal3-TREM2 binding [8]: > 90%
% blocking of Gal3-VEGFR3 binding [9]: < 30%
% blocking of Gal3-EGFR binding [10]: < 30%
% blocking of Gal3-TLR4 binding [11]: > 90%
% blocking of Gal3-PDGFR alpha binding [12]: < 30%

B5: 15F10.2D6 (antibody, mouse IgG2a, V domains shown)
VH: B4 VH with T28A, I56V, P61T, N63H, K76E, N77D, F80Y
VL: B4 VL with S32N, A105G
% blocking of Gal3-APP695 binding [2]: > 90%
% blocking of Gal3-TREM2 binding [8]: > 90%
% blocking of Gal3-TLR4 binding [11]: > 90%
% blocking of Gal3-Tau aggregates binding [5]: < 50%

Reference: patent publication US20250145722A1, “ANTI-GAL3 ANTIBODIES AND METHODS OF USE” (TrueBinding, Inc., priority 2020, published 2025)
